The text below walks through data of US7897573B2, “Selective VPAC2 receptor peptide agonists” (priority 2005, dated 2011).

In one series the target is T1, Human VPAC1 Receptor (Homo sapiens, UniProt P32241).
T1 construct: expressed in transfected cells
T1 sequence (P32241 31-457): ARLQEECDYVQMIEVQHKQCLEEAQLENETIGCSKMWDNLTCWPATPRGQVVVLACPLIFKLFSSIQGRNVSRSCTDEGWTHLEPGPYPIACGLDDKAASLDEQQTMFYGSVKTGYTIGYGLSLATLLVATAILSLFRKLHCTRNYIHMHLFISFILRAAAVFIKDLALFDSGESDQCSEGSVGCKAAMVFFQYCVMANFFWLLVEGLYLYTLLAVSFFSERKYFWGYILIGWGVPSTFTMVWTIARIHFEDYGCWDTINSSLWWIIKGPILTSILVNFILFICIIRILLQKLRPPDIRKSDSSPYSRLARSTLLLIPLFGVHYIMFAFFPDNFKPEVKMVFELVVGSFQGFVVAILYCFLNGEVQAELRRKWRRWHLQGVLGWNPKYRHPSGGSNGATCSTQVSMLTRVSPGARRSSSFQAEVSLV
The series is described as follows: Filter binding assay, 125I-labeled VIP, membranes of cells transiently transfected with human VPAC1. Particulars: 125I-labeled VIP tracer. Here is the method:
For this assay, the solutions and equipment include:
Presoak solution: 0.5% Polyethyleneamine in Aqua dest
Buffer for flushing filter plates: 25 mM HEPES pH 7.4
Blocking buffer: 25 mM HEPES pH 7.4; 0.2% protease free BSA
Assay buffer: 25 mM HEPES pH 7.4; 0.5% protease free BSA
Dilution and assay plate: PS-Microplate, U form
Filtration Plate Multiscreen FB Opaque Plate; […] Type B Glasfiber filter
In order to prepare the filter plates, the presoak solution is aspirated by vacuum filtration. The plates are flushed twice with 200 μL flush buffer. 200 μL blocking buffer is added to the filter plate. The filter plate is then incubated with 200 μL presoak solution for 1 hour at room temperature.
The assay plate is filled with 25 μL assay buffer, 25 μL membranes (2.5 μg) suspended in assay buffer, 25 μL agonist in assay buffer, and 25 μL tracer (about 40000 cpm) in assay buffer. The filled plate is incubated for 1 hour with shaking.
The transfer from assay plate to filter plate is conducted. The blocking buffer is aspirated by vacuum filtration and washed two times with flush buffer. 90 μL is transferred from the assay plate to the filter plate. The 90 μL transferred from assay plate is aspirated and washed three times with 200 μL flush buffer. The plastic support is removed. It is dried for 1 hour at 60° C. 30 μL Microscint is added. The count is performed.

Series [1] in a line: Rat serum stability study (DiscoveRx cAMP read-out on CHO-VPAC2 cells). Particulars: EC50, 4° C./EC50, 37° C., values >100% may represent release of intact peptide from the PEG conjugate; for 24 h stab (%): 24 h in rat serum at 37° C. Here is the method:
In order to determine the stability of VPAC2 receptor peptide agonists in rat serum, CHO-VPAC2 cells clone #6 (96 well plates/50,000 cells/well and 1 day culture), PBS 1× (Gibco), the peptides for the analysis in a 100 μM stock solution, rat serum from a sacrificed normal Wistar rat, aprotinin, and a DiscoveRx assay kit are obtained. The rat serum is stored at 4° C. until use and is used within two weeks.
The aliquot is stored with aprotinin at 4° C. The aliquot is stored without aprotinin at 37° C. The aliquots are incubated for 24 or 72 hours.
On Day 1, after incubation of the aliquots prepared on day 0 for 24 or 72 hours, an incubation buffer containing PBS+1.3 mM CaCl2, 1.2 mM MgCl2, 2 mM glucose, and 0.25 mM IBMX is prepared. A plate with 11 serial 5× dilutions of peptide for the 4° C. and 37° C. aliquot is prepared for each peptide studied. […] The plate(s) are washed with cells twice in incubation buffer. The plates are allowed to hold 50 μL incubation media per well for 15 minutes. 50 μL solution per well is transferred to the cells from the plate prepared with 11 serial 5× dilutions of peptide for the 4° C. and 37° C. aliquot for each peptide studied, using the maximal concentrations that are indicated by the primary screen, in duplicate. This step dilutes the peptide concentration by a factor of two. The cells are incubated at room temperature for 30 minutes. The supernatant is removed. 40 μL/well of the DiscoveRx antibody/extraction buffer is added. The cells are incubated on the shaker (300 rpm) for 1 hour. Normal procedure with the DiscoveRx kit is followed. cAMP standards are included in column 12. EC50 values are determined from the cAMP assay data.

Series [2] in a line: Pharmacokinetic profiles of PEGylated peptides in Fisher 344 rats. The series is classed as in vivo, rat. Particulars: 100 μg agonist/kg, plasma RIA, mean N = 3. Here is the method: Pharmacokinetic profiles of PEGylated peptides. Healthy Fisher 344 rats (3 animals per group) were injected with 100 μg agonist/kg (agonist amount based on peptide content and dissolved in PBS buffer). Blood samples were drawn 3, 12, 24, 48, 72, 96 and 168 hour post dosing and the peptide content in plasma was analysed by a radio-immunoassay (RIA) directed against the N-terminus of the peptide. PK parameters were then calculated using a model-independent method (WinNonlin Pro, Pharsight Corp., Mountain View, Calif., USA).

*1 amine or outer side, *2 acyl side, *3 side chain or, on linkers, in order; H or OH if unused. Primed or numbered codes have the meaning given here. [ ]: non-standard residue; d: D form. The star is where a group is joined. Tyr(OMe)(3) = Tyr, methoxy (Y(OMe)), COc1ccc(C[C@H](N[*:1])C(=O)[*:2])cc1; WPEG40K = not defined here; Orn = NCCC[C@H](N)C(=O)O; Abu = CC[C@H](N)C(=O)O; Hexanoyl = CCCCCC(=O)*; Aib = CC(C)(N)C(=O)O

Consider “C6-HSDAVFTEQY(OMe)TOrnLRAibQVAAAibK(W-PEG40K)YLQSIOrnOrnGGPSSGAPPPS-NH2 (HSDAVFTEQYTXLRXQVAAXXYLQSIXXGGPSSGAPPPS; C6 acyl; PEG40K; non-natural residues; amide; Synthetic sequence PEGylated VPAC2 receptor peptide agonist) [Agonist P410]”, for which the IC50 (in general, the concentration that inhibits the measured activity by half) with Human VPAC1 Receptor was above 25000 nM.

For “C6-HSDAVFTEQY(OMe)TOrnLRK(WPEG40K)QLAAbuAibOrnYLQAibIOrnOrnGGPSSGAPPPS-NH2 (Hexanoyl-HSDAVFTEQ[Tyr(OMe)(3)]T[Orn]LRK(WPEG40K)QLA[Abu][Aib][Orn]YLQ[Aib]I[Orn][Orn]GGPSSGAPPPS-NH2; reading uncertain) [Agonist P557]”, the “24 h stab (%)” value in series [1] was 131%. As to “C6-HSDAVFTEQY(OMe)TOrnLRAibQLAAbuAibOrnYLQSIOrnOrnC(PEG4OK)GGPSSGAPPPS-NH2 (HSDAVFTEQYTXLRXQLAXXXYLQSIXXCGGPSSGAPPPS; C6 acyl, PEG40K on Cys, C-terminal amide; Synthetic sequence PEGylated VPAC2 receptor agonist) [Agonist P566]”, the “24 h stab (%)” value in series [1] turned out to be 152%. As to “C6-HSDAVFTEQY(OMe)TOrnLRAibQVAAAibOrnYLQSC(PEG20K)OrnOrnGGPSSGAPPPC(PEG20K)-NH2 (HSDAVFTEQYTXLRXQVAAXXYLQSCXXGGPSSGAPPPC; C6 acyl, two PEG20K, C-terminal amide; Synthetic sequence PEGylated VPAC2 receptor agonist) [Agonist P503]”, the “24 h stab (%)” value in series [1] is listed as 174%. In turn, “C6-HSDAVFTEQY(OMe)TOrnLRAibQVAAAibOrnYLQSIOrnK(WPEG40K)OrnGGPSSGAPPPS-NH2 (HSDAVFTEQYTXLRXQVAAXXYLQSIXXXGGPSSGAPPPS; C6 acyl; PEG40K; non-natural residues; amide; Synthetic sequence PEGylated VPAC2 receptor peptide agonist) [Agonist P454]” registered an IC50 in the series with Human VPAC1 Receptor above 25000 nM. In the series with Human VPAC1 Receptor, “C6-HSDAVFTEQY(OMe)TOrnLRAibQLAAbuAibOrnYLQAibIOrnOrnGGPSSGAPPPC(PEG20K)C(PEG20K)-NH2 (HSDAVFTEQYTXLRXQLAXXXYLQXIXXGGPSSGAPPPCC; C6 acyl, two PEG20K, C-terminal amide; Synthetic sequence PEGylated VPAC2 receptor agonist) [Agonist P517]” had an IC50 above 25000 nM. Regarding “C6-HSDAVFTEQY(OMe)TOrnLRAibQVAAAibC(PEG40K)YLQSIOrnOrnGGPSSGAPPPS-NH2 (HSDAVFTEQYTXLRXQVAAXCYLQSIXXGGPSSGAPPPS; C6 acyl; PEG40K; non-natural residues; amide; Synthetic sequence PEGylated VPAC2 receptor peptide agonist) [Agonist P460]”, the IC50 in the series with Human VPAC1 Receptor was above 25000 nM. For “C6-HSDAVFTEQY(OMe)TOrnLRAibQVC(PEG40K)AAibOrnyLQSIOrnOrnGGPSSGAPPPS-NH2 [Agonist P478]”, the “24 h stab (%)” value in series [1] is recorded as 34%. As for “C6-HSDAVFTEQY(OMe)TOrnLRK(WPEG40K)QVAAAibOrnYLQSIOrnOrnGGPSSGAPPPS-NH2 (HSDAVFTEQYTXLRXQVAAXXYLQSIXXGGPSSGAPPPS; C6 acyl, PEG40K on Lys, C-terminal amide; Synthetic sequence PEGylated VPAC2 receptor agonist) [Agonist P529]”, in series [1] (72 h in rat serum at 37° C.), the “72 h stab (%)” value was 119%. For “C6-HSDAVFTEQY(OMe)TOrnLRAibQLAAbuAibOrnYLQSC(PEG40K)OrnOrnGGPSSGAPPPS-NH2 (HSDAVFTEQYTXLRXQLAXXXYLQSCXXGGPSSGAPPPS; C6 acyl, PEG40K on Cys, C-terminal amide; Synthetic sequence PEGylated VPAC2 receptor agonist) [Agonist P543]”, in series [1], the “24 h stab (%)” value amounted to 119%. In the case of “C6-HSDAVFTEQY(OMe)TOrnLRK(CO(CH2)2SPEG40K)QVAAAibOrnYLQSIOrnOrnGGPSSGAPPPS-NH2 (HSDAVFTEQYTXLRXQVAAXXYLQSIXXGGPSSGAPPPS; N-terminal C6 acyl, PEG40K on Lys, C-terminal amide; Synthetic sequence PEGylated VPAC2 receptor agonist) [Agonist P485]”, in series [1], the “24 h stab (%)” value is given as 65%.

Regarding “C6-HSDAVFTEQY(OMe)TOrnLRAibQVAAAibOrnYLQAibIOrnOrnGGPSSGAPPPC(PEG40K)-NH2 (HSDAVFTEQYTXLRXQVAAXXYLQXIXXGGPSSGAPPPC; C6 acyl, PEG40K on Cys, C-terminal amide; Synthetic sequence PEGylated VPAC2 receptor agonist) [Agonist P509]”, in the series with Human VPAC1 Receptor, the IC50 was above 25000 nM. With “C6-HSDAVFTEQY(OMe)TOrnLRAibQVAAAibOrnYLQSK(WPEG40K)OrnOrnGGPSSGAPPPS-NH2 (HSDAVFTEQYTXLRXQVAAXXYLQSXXXGGPSSGAPPPS; C6 acyl, PEG40K on Lys, C-terminal amide; Synthetic sequence PEGylated VPAC2 receptor agonist) [Agonist P535]”, in the series with Human VPAC1 Receptor, the IC50 is above 25000 nM. Consider “C6-HSDAVFTEQY(OMe)TOrnLRAibQLAAAibOrnYLQSIOrnOrnC(PEG40K)GGPSSGAPPPS-NH2 (HSDAVFTEQYTXLRXQLAAXXYLQSIXXCGGPSSGAPPPS; C6 acyl, PEG40K on Cys, C-terminal amide; Synthetic sequence PEGylated VPAC2 receptor agonist) [Agonist P560]”, for which, in series [1], the “24 h stab (%)” value was found to be 192%. On the same count and under the same terms, the same measure for “C6-HSDAVFTEQY(OMe)TOrnLRAibQVAK(CO(CH2)2SPEG20K)AibOrnYLQSIOrnOrnGGPSSGAPPPC(PEG20K)-NH2 (HSDAVFTEQYTXLRXQVAXXXYLQSIXXGGPSSGAPPPC; C6 acyl, two PEG20K, C-terminal amide; Synthetic sequence PEGylated VPAC2 receptor agonist) [Agonist P492]”: 131%.

On to “C6-HSDAVFTEQY(OMe)TOrnLRAibQVAAAibOrnYLQSIOrnK(CO(CH2)2SPEG20K)OrnGGPSSGAPPPC(PEG20K)-NH2 (HSDAVFTEQYTXLRXQVAAXXYLQSIXXXGGPSSGAPPPC; C6 acyl, two PEG20K, C-terminal amide; Synthetic sequence PEGylated VPAC2 receptor agonist) [Agonist P499]”, for which, in series [2], the AUC0-last was determined as 6650 ng·h/mL; the Cl/F worked out at 0.25 mL/min/kg; the Cmax (in general, the maximum level reached in the sampled fluid or tissue) was found to be 132 ng/mL; the Tmax (as a rule, the time from dosing to the highest level) stood at 24 h. Also, the T½ in series [2] was determined as 25 h. For the same substance, the half-maximal inhibitory concentration (IC50) with Human VPAC1 Receptor is above 25000 nM.

Consider “C6-HSDAVFTEQY(OMe)TOrnLRAibQLAAbuAibOrnYLQAibC(PEG40K)OrnOrnGGPSSGAPPPS-NH2 (HSDAVFTEQYTXLRXQLAXXXYLQXCXXGGPSSGAPPPS; C6 acyl, PEG40K on Cys, C-terminal amide; Synthetic sequence PEGylated VPAC2 receptor agonist) [Agonist P541]”, for which the IC50 with Human VPAC1 Receptor is above 25000 nM.
